Source: PMC10233817
Where two headings read alike, the source gives them in different places.

Experiments:
EWS RRM-RG2-ZnF [1] = target: T1, EWS RRM-RG2-ZnF (UniProt Q01844 361-549); experiment: EMSA
EWS RRM-RG2 [2] = target: T2, EWS RRM-RG2 (UniProt Q01844 361-517); experiment: EMSA
T2 sequence: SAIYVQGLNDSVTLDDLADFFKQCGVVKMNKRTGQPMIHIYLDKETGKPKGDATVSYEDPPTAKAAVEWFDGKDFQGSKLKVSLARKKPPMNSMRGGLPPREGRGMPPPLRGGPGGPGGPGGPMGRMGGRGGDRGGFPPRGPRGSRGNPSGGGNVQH

EWS RRM-RG2 [3] = target: T2, EWS RRM-RG2; experiment: EMSA; remark: listed apart in the source
EWS RRM-RG2-ZnF [4] = target: T1, EWS RRM-RG2-ZnF; experiment: EMSA; remark: listed apart in the source
EWS RRM-RG2 [5] = target: T2, EWS RRM-RG2; experiment: ITC
EWS RRM-RG2-ZnF [6] = target: T1, EWS RRM-RG2-ZnF; experiment: ITC
EWS RRM = target: T3, EWS RRM (UniProt Q01844 361-447); experiment: ITC
T3 sequence: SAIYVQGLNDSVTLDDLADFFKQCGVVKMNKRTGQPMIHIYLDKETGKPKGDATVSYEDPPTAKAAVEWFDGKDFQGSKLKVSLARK

B1: RNA:DNA hybrid (DNA:RNA)
RNA: GCAGCUGGCACGACAGGUAUGAAUC
DNA: GATTCATACCTGTCGTGCCAGCTGC
B1: binds (EWS RRM-RG2-ZnF [1]); binds (EWS RRM-RG2 [2]).

GGAUCUUUAACUACUCAAGAUACUGAACAUGACAUGGUA (structured_RNA) [SON-GGU]: binds (EWS RRM-RG2 [3]); binds (EWS RRM-RG2-ZnF [4]).

With TAAGGGAGGGCGGGAGGGAA (structured_DNA) [pu20m2 DNA G4] the Kd (EWS RRM-RG2 [5]) was 3.28 ± 0.5 µM, the Kd (EWS RRM-RG2-ZnF [6]) was 3.96 ± 0.7 µM and the Kd (EWS RRM) was 22.3 ± 6.8 µM.
